Broadly, the stoichiometry N is the number of molecules, sites or subunits per partner or assembly.

For the assay, the target named is PlyCB R66E mutant (streptococcal bacteriophage (C1)) (UniProt Q7Y3F3). Briefly: SEC. Background: In gel filtration, larger molecules generally elute earlier.

Turning to “PlyCB R66E mutant (from UniProt Q7Y3F3 1-72) (natural protein)”, the stoichiometry N was determined as 8.

The values are drawn from article PMC8555655.
